Results reported in patent US20110269161.

Columns and labels:
[1] = system: T1, peptide C6 (TKRSGSVYEPPFR), derived from phosphorylase b kinase regulatory subunit beta (Ser26)
T1 sequence: TKRSGSVYEPPFR

[2] = system: T2, peptide F6 (RIRTQSFSLQPFR), derived from nitric-oxide synthase, endothelial (Ser1176)
T2 sequence: RIRTQSFSLQPFR

[3] = system: T3, peptide A6 (RPGPQSPGSPPFR), derived from neutrophil cytosol factor 1
T3 sequence: RPGPQSPGSPPFR

[4] = system: seven peptides sharing a common motif of [S/T]-Pro and clear upregulation by G2/M arrest
[5] = system: T4, peptide C2 (IPTGTTPQRKPFR), derived from kinesin-like protein kif11 (Thr927)
T4 sequence: IPTGTTPQRKPFR

[6] = system: T5, peptide B11 (LKLSPSPSSRPFR), derived from lamin-b1 (Ser392)
T5 sequence: LKLSPSPSSRPFR

[7] = system: peptide H5 (EYDRLYEEYTPFR), derived from Phosphatidylinositol 3-kinase regulatory subunit p85α(Tyr-467)/p55γ(Tyr-199)

## Akt1 (full length), purified human active kinase
[1]
  in vitro peptide phosphorylation by purified kinase (KAYAK, LC-MS): this peptide was not significantly phosphorylated by Akt
[2]
  peptide phosphorylation, 100 µM peptide reacted individually: both RSK and Akt demonstrated strong phosphorylation

## Cdc2/cyclin B1 (full length), purified complex
[3]
  phosphorylation by purified kinase complex (KAYAK profiling of 90 peptides): purified Cdc2/Cyclin B1 complex phosphorylated all 7 peptides along with 4 other up-regulated peptides
[4]
  phosphorylation by purified kinase complex (KAYAK profiling of 90 peptides): purified Cdc2/Cyclin B1 complex phosphorylated all 7 peptides along with 4 other up-regulated peptides
[5]
  phosphorylation by purified kinase complex (KAYAK profiling of 90 peptides): purified Cdc2/Cyclin B1 complex phosphorylated all 7 peptides along with 4 other up-regulated peptides
[6]
  phosphorylation by purified kinase complex (KAYAK profiling of 90 peptides): purified Cdc2/Cyclin B1 complex phosphorylated all 7 peptides along with 4 other up-regulated peptides

## Src (full length), purified human active kinase
[7]
  in vitro kinase reaction with purified kinase: robust phosphorylation by Src but not EGFR
